This is an account of results in patent publication US9675625B2, “Medicament comprising recombinant antibody against chemokine receptor CCR4” (KYOWA HAKKO KIRIN CO., LTD., priority 2003, dated 2017).

Series [1] concerns CCR4/EL4 cells. Briefly: antitumor effect of KM 2760 and G-CSF in combination, CCR4/EL4 cells grafted into ventral skin of C57BL/6 mice. Format: in vivo, C57BL/6 mouse. The protocol:
CCR4/EL4 cells (WO 01/64754) were suspended, in RPMI 1640 medium (Gibco BRL) at a concentration of 1×10^6 cells/mL, and 100 μL of the suspension was grafted into the right ventral skin of C57BL/6 mice (Nippon Crea, male, 8 weeks old). After, mice were grouped into A to D, each of the agents A to D were administered to each mouse. Incidentally, the day on which the tumor was grafted was defined as Day 0.
B. Group of administering KM 2760 alone: 100 μg of KM2760 was intravenously administered per mouse on Day 0 and Day 4.
C. Group of administering G-CSF alone: 10 μg of G-CSF (Neuup Injection 100, manufactured by Kyowa Hakko Kogyo Co., Ltd.) was subcutaneously administered per mouse once a day for 10 days from 4 days before the tumor grafting (hereinafter referred to as Day-4) to Day 5.
The experiment was conducted with group A consisting of 10 mice and groups B, C and D each consisting of 7 mice. […] Each of the diluent was administered at 100 μL. A diameter of a tumor was measured with calipers chronologically from Day 0 of each group. A tumor volume was calculated using formula 2 in Example 2.
Since the tumor death of the mouse was started in group A from Day 17 on, the evaluation of the tumor volume was finished on Day 14.
The antitumor effect (T/C value) in each group was evaluated by calculation using the following formula 3 for comparison between the average value of the tumor volume in group A and the average values of the tumor volume in each group on the final evaluation day (Day 14). (T/C value)=(average value of tumor volume in each group on Day 14)/average value of tumor volume in group A on Day 14) (Formula 3)

For another series, the system named is CCRF-CEM cells. Briefly: antitumor effect of KM 2760 and cyclophosphamide in combination, CCRF-CEM cells grafted in nude mouse. Format: in vivo, Balb/c nude mouse. The note with it: Day 4; KM 2760 800 μg per mouse Day 0 and Day 4; CPA 65 mg/kg Day 0; tail vein.
The test system of series [2] is CCR4/EL4 cells. As to the kind of experiment: in vitro cytotoxic activity (ADCC) of KM 2760 with cytokine-stimulated effector cells, LDH release. In kind it is cell-based, mouse. The note with it: KM 2760 1 or 100 ng/mL, effector:target 15:1, 37° C. 4 hours, no cytokine, FIG. 1. The protocol:
An effect of using anti-CCR4 human chimeric antibody KM 2760 (FERM BP-7054, WO 01/64754) and a cytokine in combination in an in vitro cytotoxic activity was measured by the following method.
A vein blood (50 mL) was collected from a healthy person, 0.5 mL of heparin sodium (manufactured by Shimizu Seiyaku K.K.) was added, and they were gently mixed. A mononuclear cell layer was separated from using a MONO-POLY separation solution (manufactured by Dainippon Pharmaceutical Co., Ltd.) according to the attached manual. […]
The target cell suspension (50 μL) prepared in the above (c) was added to each well of a 96-well U-shaped bottom plate containing the effector cells stimulated with the cytokine in the above (b) such that the concentration became 1×10^4 cells/well. […] After the reaction, the plate was subjected to centrifugation, and a lactic acid dehydrogenase (hereinafter referred to as LDH) activity in the supernatant was measured by obtaining an absorbance data with CytoTox96 Non-Radioactive Cytotoxic activity Assay (manufactured by Promega) according to the attached manual. […] Cytotoxic activity (%)=[(absorbance of a specimen)−(absorbance of effector cell spontaneous release)−(absorbance of target cell spontaneous release)]/[(absorbance of target cell total release)−(absorbance of target cell spontaneous release)]×100 (Formula 1)

Procedure for CCRF-CEM cells: CCRF-CEM cells (human T cell leukemia cell line) were suspended in RPMI 1640 medium (Gibco BRL) at a concentration of 2×10^8 cells/mL, and 100 μL of the suspension was grafted intradermally in the right flank of Balb/c nude mice (Nippon Crea, male). On Day 18 after the cell grafting, a diameter of a tumor was measured with calipers, and a tumor volume was calculated using formula 2 in Example 2.
Individuals having the tumor volume within the range of 116 to 349 mm^3 (on average 219 mm^3) were selected, and grouped such that the average tumor volume to be almost the same. Each of the following agent A to D was administered to the mice. Incidentally, the grouping day was defined as Day 0.
The experiment was conducted with groups each consisting of five mice. Each of the agents was diluted with a physiological saline (Otsuka Seiyaku), and the diluent was administered from the tail vein. On Day 4, the tumor volume was measured. The antitumor effect was evaluated by comparing an average values of a tumor volume change (V/V0) on each measurement day when the tumor volume on Day 0 in each group was defined as V0.

B1: KM 2760: anti-CCR4 human chimeric antibody KM 2760 (FERM BP-7054, WO 01/64754) (antibody, V domains shown)
VH: EVQLVESGGDLMKPGGSLKISCAASGFIFSNYGMSWVRQTPDMRLEWVATISSASTYSYYPDSVKGRFTISRDNAENSLYLQMNSLRSEDTGIYYCGRHSDGNFAFGYWGRGTLVTVSA
VL: DVLMTQTPLSLPVSLGDQASISCRSSRNIVHINGDTYLEWYLQRPGQSPKLLIYKVSNRFSGVPDRFSGSGSGTDFTLKISRVEAEDLGVYYCFQGSLLPWTFGGGTRLEIRR
B1: the “T/C value (average tumor volume of group / group A)” value with CCR4/EL4 cells [1] (Day 14, KM 2760 100 μg per mouse i.v. Day 0 and Day 4, G-CSF 10 μg per mouse s.c. once a day Day-4 to Day 5) was determined as 0.48. Besides, the “antitumor effect compared to untreated group A (tumor volume)” value in the series on CCR4/EL4 cells [1] (FIG. 6, up to Day 14) was “low”. Moreover, the “T/C (V/V0 of group divided by V/V0 of negative control group)” value in the series on CCRF-CEM cells was found to be 0.80. In the series with CCR4/EL4 cells [2], the cytotoxic activity result was “increased in a concentration-dependent manner”.
